Paper PMC6042779

Biological target: SRC (UniProt P12931)
Assay: bead-immobilized peptide pulldown of SRC-GST
Settings: reference: nonphosphorylated FAK peptide; sites Y397

binding against the reference: gained
Substance: FAK FERM-kinase linker region, 358-409 (from UniProt P34152) pY397 FAK peptide
